Data reported in patent US20100256056A1.
Read-outs that look alike come from different tables or passages of the source.

Key:
[1] = biological target: human GLP-1 (hGLP-1) receptor (human) (UniProt P43220)
[2] = biological target: human GLP-1 (hGLP-1) receptor (human) (UniProt P43220); remark: listed apart in the source

Chain of human GLP-1 (hGLP-1) receptor (human) (P43220 24-463): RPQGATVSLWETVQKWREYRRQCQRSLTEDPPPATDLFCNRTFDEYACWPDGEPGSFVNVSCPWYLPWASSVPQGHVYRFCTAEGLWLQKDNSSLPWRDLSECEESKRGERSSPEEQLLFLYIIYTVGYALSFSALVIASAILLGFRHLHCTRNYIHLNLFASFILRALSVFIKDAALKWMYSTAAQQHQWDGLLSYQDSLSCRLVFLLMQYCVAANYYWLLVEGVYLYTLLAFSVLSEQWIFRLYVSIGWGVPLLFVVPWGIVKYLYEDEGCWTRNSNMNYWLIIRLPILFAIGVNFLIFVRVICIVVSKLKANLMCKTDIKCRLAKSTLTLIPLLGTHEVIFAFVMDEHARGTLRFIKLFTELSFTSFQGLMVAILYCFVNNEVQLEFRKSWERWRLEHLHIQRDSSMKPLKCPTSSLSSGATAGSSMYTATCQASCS

[Aib^2,29, Nle^14, Arg^30]Exendin-4(1-30)-NH2 (peptide)
hGLP-1 cAMP* [1]: 95

[Aib^2, Nle^14, β-Ala^29, Arg^30]Exendin-4(1-30)-NH2 (peptide)
hGLP-1 cAMP* [2]: 90

[Aib^2, Nle^14]Exendin-4(1-39)-NH2 (peptide)
hGLP-1 cAMP* [2]: 62
